Measured values reported in patent US10227617B2, “Sequestration of carbon dioxide with hydrogen to useful products” (UNIVERSITY OF GEORGIA RESEARCH FOUNDATION, INC., priority 2012, dated 2019).

Assays:
[1] = Scherf et al., 1993; cited from earlier work
[2] = 4-hydroxybutyryl-CoA dehydratase coupled spectrophotometric assay; type: biochemical; settings: 70° C
Method: (§1) 4-hydroxybutyryl-CoA dehydratase (Msed_1321). The enzyme was purified using a 5 ml Bio-Scale Mini Profinity IMAC cartridge (Bio-Rad). The soluble, heat-treated lysate was loaded onto the column with binding buffer (50 mM Tris, 300 mM NaCl, 3.5 mM DTT, 20 mM imidazole, pH 8.0) and the his-tagged enzyme removed with elution buffer (50 mM Tris, 300 mM NaCl, 3.5 mM DTT, 500 mM imidazole, pH 8.0). The fraction collector was positioned inside the anaerobic chamber, and fractions containing enzyme were collected, concentrated, and dialyzed into reaction buffer (100 mM potassium phosphate, pH 7.5, 1 mM DTT). The enzyme solution was either stored at room temperature inside the anaerobic chamber for immediate use or mixed with glycerol to 20% and stored at −20° C. in a sealed vacuum dessicator. Enzyme activity was measured aerobically in a coupled spectrophotometric assay at 70° C. The assay mixture contained 20 mM sodium phosphate, 5 mM MgCl2, 2 mM 4HB, 2 mM ATP, 1 mM CoA, 2 mM NAD^+, 1 mM DTT, 1 mg/ml purified Msed_0406, and 42 ng/ml Msed_0399. The reaction mixture was pre-heated for 5 min at 70° C. to allow accumulation of 4HB-CoA, and then initiated by addition of purified Msed_1321. For the oxygen-sensitivity assay, Msed_1321 was washed with 100 mM potassium phosphate, pH 7.5, to remove any DTT from the reaction buffer. […]

[3] = Oxygen-sensitivity assay of 4-hydroxybutyryl-CoA dehydratase; settings: exposed to air
Method: as §1

[4] = reported data, FIG. 4; cited from earlier work

B1: clostridal homolog: 4-hydroxybutyryl-CoA dehydratase from Clostridium aminobutyricum (protein, UniProt P55792 1-490, looked up)
4-hydroxybutyryl-CoA …: MLMTAEQYIESLRKLNTRVYMFGEKIENWVDHPMIRPSINCVAMTYELAQDPQYADLMTTKSNLIGKTINRFANLHQSTDDLRKKVKMQRLLGQKTASCFQRCVGMDAFNAVFSTTYEIDQKYGTNYHKNFTEYLKYIQENDLIVDGAMTDPKGDRGLAPSAQKDPDLFLRIVEKREDGIVVRGAKAHQTGSINSHEHIIMPTIAMTEADKDYAVSFACPSDADGLFMIYGRQSCDTRKMEEGADIDLGNKQFGGQEALVVFDNVFIPNDRIFLCQEYDFAGMMVERFAGYHRQSYGGCKVGVGDVVIGAAALAADYNGAQKASHVKDKLIEMTHLNETLYCCGIACSAEGYPTAAGNYQIDLLLANVCKQNITRFPYEIVRLAEDIAGGLMVTMPSEADFKSETVVGRDGETIGDFCNKFFAAAPTCTTEERMRVLRFLENICLGASAVGYRTESMHGAGSPQAQRIMIARQGNINAKKELAKAIAGIK
Q: For B1, which “time to irreversible inactivation when exposed to air” value [1] is on record?
A: ~25 min

B2: Msed_1321: M. sedula 4-hydroxybutyryl-CoA dehydratase, SEQ ID NO:15 (protein, listed as Metallosphaera sedula)
chain: MVVRTGEQYLQSISNRSKVEIYVMGREVKDVTKHPFLKPSVMSFKATFDAAWEEDTKELGRAWSPYLEEEINRFNHIHRSPDDLAAKVKLLRKLSHKTGACFQRCVGWDSLNTLHIVTTMMAKKGKTEVRDRFVEYLKYVQKNDLALAGAMTDAKGIRNLKPSQQPNKNAYLRITEVTKDGIYVSGAKANITGVAATEEMVVLPTRAMGPEDKDYAVAFAIPTDTEGVKIVVGRQLNDARRMEEGEIDGLPYFYNHEGLVIFDNVFVPMNRVFLAGEWEYTGTLVEIFSAYHRQGYGGCKAGLGDVIIGASADLAKQIGVDRASHVQDKLTEMIFLTETMYSAGIAASLNAVKMCDNCWWVNPMHANVTKHLVARFPSQIAQLSIDLAGGIVGTAPSEWDLKNPKLKEYISRYLQGAEDFTAEDRLRMVRLVENVSMGVAFQIESVHGAGSPAAQRIMFSRLYDLNFAQEVAKKLAGRKSEVKFTSKAEPWRESQSEAEAKEAGLKS
Q: For B2, which Vmax [2] is on record?
A: 2.2 µmol/min/mg

Q: And the “duration of initial activation upon exposure to air” value [3]?
A: about 15 hours

B3: Msed_1456: M. sedula 3-hydroxypropionate:CoA ligase, SEQ ID NO:6 (protein, listed as Metallosphaera sedula)
chain: MFMRYIMVEEQTLKTGSQELEEKADYNMRYYAHLMKLSKEKPAEFWGSLAQDLLDWYEPWKETMRQEDPMTRWFIGGKINASYNAVDRHLNGPRKFKAAVIWESELGERKIVTYQDMFYEVNRWANALRSLGVGKGDRVTIYMPLTPEGIAAMLASARIGAIHSVIFAGFGSQAIADRVEDAKAKVVITADAYPRRGKVVELKKTVDEALNSLGERSPVQHVLVYRRMKTDVNMKEGRDVFFDEVGKYRYVEPERMDSNDPLFILYTSGTTGKPKGIMHSTGGYLTGTAVMLLWSYGLSQENDVLFNTSDIGWIVGHSYITYSPLIMGRTVVIYESAPDYPYPDKWAEIIERYRATTFGTSATALRYFMKYGDEYVKNHDLSSIRIIVTNGEVLNYSPWKWGLEVLGGGKVFMSHQWWQTETGAPNLGYLPGIIYMPMKSGPASGFPLPGNFVEVLDENGNPSAPRVRGYLVMRPPFPPNMMMGMWNDNGERLKKTYFSKFGSLYYPGDFAMVDEDGYIWVLGRADETLKIAAHRIGAGEVESAITSHPSVAEAAVIGVPDSVKGEEVHAFVVLKQGYAPSSELAKDIQSHVRKVMGPIVSPQIHFVDKLPKTRSGKVMRRVIKAVMMGSSAGDLTTIEDEASMDEIKKAVEELKKELKTS
Q: With B3 as the molecule, how does the “activity on 3-hydroxybutyrate” value [4] read?
A: > 1%
